T1: YTHDC2 YTH domain (UniProt Q9H6S0 1285-1424)
T1 sequence: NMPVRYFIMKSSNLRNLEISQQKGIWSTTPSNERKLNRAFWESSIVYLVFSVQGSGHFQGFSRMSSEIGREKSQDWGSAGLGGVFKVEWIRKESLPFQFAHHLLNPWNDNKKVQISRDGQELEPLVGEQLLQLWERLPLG

T2: YTHDF1 YTH domain (UniProt Q9BYJ9 375-552)
T2 sequence: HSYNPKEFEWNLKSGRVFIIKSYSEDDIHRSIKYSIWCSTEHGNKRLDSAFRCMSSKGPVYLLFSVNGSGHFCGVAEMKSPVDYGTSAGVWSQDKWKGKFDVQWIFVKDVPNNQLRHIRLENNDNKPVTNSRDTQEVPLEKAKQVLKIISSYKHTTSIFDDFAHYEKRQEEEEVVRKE

T3: YTHDF3 YTH domain (UniProt Q7Z739 391-585)
T3 sequence: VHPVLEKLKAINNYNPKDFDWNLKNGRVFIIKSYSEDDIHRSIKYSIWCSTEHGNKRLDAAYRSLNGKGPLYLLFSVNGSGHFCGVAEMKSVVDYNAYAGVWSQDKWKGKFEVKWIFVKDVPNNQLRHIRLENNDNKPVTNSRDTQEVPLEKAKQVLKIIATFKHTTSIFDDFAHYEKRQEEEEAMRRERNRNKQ

T4: YTHDF2 YTH domain (UniProt Q9Y5A9 383-553)
T4 sequence: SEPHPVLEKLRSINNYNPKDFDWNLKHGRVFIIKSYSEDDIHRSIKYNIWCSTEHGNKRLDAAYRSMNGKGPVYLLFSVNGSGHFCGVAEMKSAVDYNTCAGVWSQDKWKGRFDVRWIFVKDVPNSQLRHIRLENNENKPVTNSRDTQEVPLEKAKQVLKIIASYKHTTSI


Key:
YTHDC2 YTH domain = target: T1, YTHDC2 YTH domain; details: protein: recombinant
YTHDF1 YTH domain = target: T2, YTHDF1 YTH domain; details: protein: recombinant
YTHDF3 YTH domain = target: T3, YTHDF3 YTH domain; details: protein: recombinant
YTHDC1 YTH domain = YTHDC1 YTH domain (UniProt Q96MU7 345-509); assay: EMSA; 20 nM RNA; FP: 20 mM HEPES/KOH pH 7.5, 50 mM NaCl, 0.005% Tween 20, 1 mM GSH (DTT), 4 C; EMSA: 20 mM HEPES pH 8.2, 50 mM NaCl, 0.05% Triton X-100, 5% glycerol, 4 C, 0.5x T
YTHDF2 YTH domain = target: T4, YTHDF2 YTH domain; details: protein: recombinant; tags: N-terminal His6 and GST; label: none

Row | Binder | binding result (YTHDC2 YTH domain) | binding result (YTHDF1 YTH domain) | binding result (YTHDF3 YTH domain) | binding result (YTHDC1 YTH domain) | IC50 (YTHDF2 YTH domain)
1 | UUCUUCUGUGGACUGUG (ssRNA, m6A at position 12) [FAM-17mer m6A RNA probe] | binds | binds | binds | binds | –
2 | UUCUUCUGUGGACUGUG (ssRNA, m6A at position 12) [unlabeled m6A RNA probe] | – | – | – | – | 115 nM
